Data published in publication PMC7948536.

Columns and labels:
[1] = target: E3 SCF^βTrCP (neddylated; Skp1–βTrCP with Nedd8–ROC1–CUL1) (UniProt P63208)
[2] = target: E3 SCF^βTrCP (neddylated; Skp1–βTrCP with Nedd8–ROC1–CUL1) (UniProt P63208); remark: listed apart in the source
[3] = target: E3 SCF^βTrCP (neddylated; Skp1–βTrCP with Nedd8–ROC1–CUL1) (UniProt P63208); remark: listed apart in the source

real-time FRET IκBα diubiquitination, 30 °C, 30 min; conversion of substrate by gel analysis (Fig. 3A, B) [1]: 85% | real-time FRET IκBα diubiquitination under single-round turnover condition (preformed complexes treated with apyrase) (Fig. 4) [2]: 20% | FRET IκBα diubiquitination in test tube, time course to 10 min: IκBα–Ub2 product by gel, FRET signal rising alike (Fig. 2A) [3]: > 30%
Substance: IκBα (EE)–Ub (E64C)–I647 (from UniProt P25963 1-20; P0CG48 1-74; P25963 23-54)
